# Results from patent publication US20260258394A1, “PLANT ENZYMES WITH IMPROVED ACTIVITY” (MAX-PLANCK-GESELLSCHAFT ZUR FÖRDERUNG DER WISSENSCHAFTEN …, priority 2023, published 2026).
# T1: Glycolyl-CoA Carboxylase GCC M5 variant G20R (Methylorubrum extorquens propionyl-CoA carboxylase variant G20R, L100S, Y143H, D407I, I450V, W502R); β-subunit SEQ (Methylorubrum extorquens, UniProt C5AP75, D407I/G20R/I450V/L100S/W502R/Y143H)
# T1 construct: overexpressed in E. coli BL21-birA with M. extorquens biotin ligase
# T1 sequence (C5AP75 1-510 G20R/L100S/Y143H/D407I/I450V/W502R): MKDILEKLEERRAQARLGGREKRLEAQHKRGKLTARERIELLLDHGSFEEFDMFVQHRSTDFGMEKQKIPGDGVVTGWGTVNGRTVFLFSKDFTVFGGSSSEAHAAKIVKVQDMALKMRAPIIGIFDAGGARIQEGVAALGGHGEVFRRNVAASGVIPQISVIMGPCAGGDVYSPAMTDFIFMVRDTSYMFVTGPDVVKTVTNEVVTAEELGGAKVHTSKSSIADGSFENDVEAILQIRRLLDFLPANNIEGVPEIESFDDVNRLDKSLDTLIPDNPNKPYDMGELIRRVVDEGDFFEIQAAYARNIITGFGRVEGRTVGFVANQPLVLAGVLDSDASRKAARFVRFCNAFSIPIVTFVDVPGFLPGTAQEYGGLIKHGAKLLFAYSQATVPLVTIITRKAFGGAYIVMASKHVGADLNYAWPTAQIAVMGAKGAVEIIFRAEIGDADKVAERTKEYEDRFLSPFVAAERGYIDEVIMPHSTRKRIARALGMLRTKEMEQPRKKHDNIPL
# T1 sequence (C5AWU5 1-667 partner): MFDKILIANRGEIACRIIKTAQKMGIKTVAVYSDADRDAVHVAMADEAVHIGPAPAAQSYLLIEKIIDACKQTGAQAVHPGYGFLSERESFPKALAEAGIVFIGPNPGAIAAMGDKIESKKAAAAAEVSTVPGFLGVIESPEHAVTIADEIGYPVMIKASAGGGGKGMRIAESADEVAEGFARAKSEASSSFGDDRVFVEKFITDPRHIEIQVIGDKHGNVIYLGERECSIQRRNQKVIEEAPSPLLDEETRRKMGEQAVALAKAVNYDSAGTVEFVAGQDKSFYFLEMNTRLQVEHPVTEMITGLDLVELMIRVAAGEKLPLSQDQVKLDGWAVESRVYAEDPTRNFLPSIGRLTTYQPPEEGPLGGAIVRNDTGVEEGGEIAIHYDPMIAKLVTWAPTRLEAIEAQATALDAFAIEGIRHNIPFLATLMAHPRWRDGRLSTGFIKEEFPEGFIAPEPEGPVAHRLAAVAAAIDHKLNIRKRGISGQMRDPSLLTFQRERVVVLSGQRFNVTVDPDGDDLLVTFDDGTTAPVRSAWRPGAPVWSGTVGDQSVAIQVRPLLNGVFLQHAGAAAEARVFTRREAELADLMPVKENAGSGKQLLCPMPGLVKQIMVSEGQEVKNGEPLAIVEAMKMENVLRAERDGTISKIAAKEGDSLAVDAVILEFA
# T2: GCC M5_G20R (M. extorquens) β-subunit G20R, L100S, Y143H, D407I, I450V, W502R mutations
# T2 chain: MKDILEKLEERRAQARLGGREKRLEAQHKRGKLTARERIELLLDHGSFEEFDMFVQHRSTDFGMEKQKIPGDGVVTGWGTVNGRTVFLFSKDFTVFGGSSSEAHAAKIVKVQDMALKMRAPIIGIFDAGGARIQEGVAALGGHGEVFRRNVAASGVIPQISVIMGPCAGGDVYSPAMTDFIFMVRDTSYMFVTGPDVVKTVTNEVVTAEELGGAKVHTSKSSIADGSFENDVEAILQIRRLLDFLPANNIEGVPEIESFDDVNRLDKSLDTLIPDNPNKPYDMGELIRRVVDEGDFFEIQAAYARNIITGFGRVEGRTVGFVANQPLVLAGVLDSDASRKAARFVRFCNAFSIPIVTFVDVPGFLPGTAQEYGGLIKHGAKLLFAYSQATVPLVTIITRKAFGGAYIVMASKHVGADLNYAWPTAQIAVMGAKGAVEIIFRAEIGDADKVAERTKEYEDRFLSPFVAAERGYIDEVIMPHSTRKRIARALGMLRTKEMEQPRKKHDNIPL
# How the values were obtained:
# [1] = biological target: T1, Glycolyl-CoA Carboxylase GCC M5 variant G20R (Methylorubrum extorquens propionyl-CoA carboxylase variant G20R, L100S, Y143H, D407I, I450V, W502R); β-subunit SEQ; experiment: Kinetic characterization of GCC M5 G20R (Vmax, kcat, App. KM) using LC-MS assays; type: biochemical
# Excerpt: The carboxylation activity can be measured as catalytic rate of carboxylation of glycolyl-CoA (conversion of glycolyl-CoA into tartronyl-CoA) (Scheffen, loc. cit.). Catalytic rate (kcat) is here defined as the maximum formation rate of tartronyl-CoA out of glycolyl-CoA and HCO3^−. It describes how many mol of the substrate are converted per time and per mol of enzyme. It can only be approximated as it requires 100% substrate saturation of the active sites. Therefore, turnover rates at different initial substrate concentrations can be measured to compute the catalytic rate with the Michaelis-Menten equation.
# [2] = tested on: Glycolyl-CoA Carboxylase GCC M5 (Methylorubrum extorquens propionyl-CoA carboxylase variant L100S, Y143H, D407I, I450V, W502R; β-subunit SEQ ID NO: 1 …); details: cited from earlier work
# [3] = substrate: CC(=O)SCCNC(=O)CCNC(=O)[C@H](O)C(C)(C)COP(=O)(O)OP(=O)(O)OC[C@H]1O[C@@H](n2cnc3c(N)ncnc32)[C@H](O)[C@@H]1OP(=O)(O)O; experiment: Kinetic characterization of GCC M5 G20R (Vmax, kcat, App. KM) using LC-MS assays; type: biochemical, Methylorubrum extorquens; details: other: G20R; means±s.d., n=18, nonlinear regression
# Excerpt: (§1) The data represent means±s.d., as determined from n=18 independent measurements using nonlinear regression.
# [4] = substrate: CC(C)(COP(=O)(O)OP(=O)(O)OC[C@H]1O[C@@H](n2cnc3c(N)ncnc32)[C@H](O)[C@@H]1OP(=O)(O)O)[C@@H](O)C(=O)NCCC(=O)NCCSC(=O)CO; experiment: as above; type: biochemical, Methylorubrum extorquens; details: other: G20R; means±s.d., n=18, nonlinear regression
# Excerpt: as §1
# [5] = substrate: CC(=O)SCCNC(=O)CCNC(=O)[C@H](O)C(C)(C)COP(=O)(O)OP(=O)(O)OC[C@H]1O[C@@H](n2cnc3c(N)ncnc32)[C@H](O)[C@@H]1OP(=O)(O)O; experiment: Kinetic characterization of GCC M5 S100N (Vmax, kcat, App. KM) using LC-MS assays; type: biochemical, Methylorubrum extorquens; details: other: S100N; means±s.d., n=18, nonlinear regression
# Excerpt: as §1
# [6] = substrate: CC(C)(COP(=O)(O)OP(=O)(O)OC[C@H]1O[C@@H](n2cnc3c(N)ncnc32)[C@H](O)[C@@H]1OP(=O)(O)O)[C@@H](O)C(=O)NCCC(=O)NCCSC(=O)CO; experiment: as above; type: biochemical, Methylorubrum extorquens; details: other: S100N; means±s.d., n=18, nonlinear regression
# Excerpt: as §1
# [7] = biological target: T2, GCC M5_G20R (M. extorquens) β-subunit …
# [8] = means±s.d., reference Scheffen loc. cit.
molecule,measurement,setting,value
"CC(C)(COP(=O)(O)OP(=O)(O)OC[C@H]1O[C@@H](n2cnc3c(N)ncnc32)[C@H](O)[C@@H]1OP(=O)(O)O)[C@@H](O)C(=O)NCCC(=O)NCCSC(=O)CO [Glycolyl-CoA, glycolyl-CoA]","Vmax, fold higher than GCC M5",[1]; G20R versus GCC M5,1.8 -fold
same,apparent KM value for glycolyl-CoA (change versus GCC M5),"[1]; G20R versus GCC M5, result in words",slightly increased
same,kcat,"[1]; G20R, unit not given",9.8±0.2
same,catalytic rate of carboxylation of glycolyl-CoA,"[2]; Scheffen, Nat. Catal. 4, 105-115, 2021",5.6 ± 0.3 s⁻¹
same,Km,"[2]; means±s.d., reference Scheffen loc. cit., read-out: App. KM",150 ± 30 µM
same,Vmax,[2]; [8],2590 ± 130 nmol/min/mg
same,kcat,[2]; [8],5.6 ± 0.3 s⁻¹
same,kcat/KM,[2]; reference Scheffen loc. cit.,36300 M⁻¹ s⁻¹
"Glycolyl-CoA Carboxylase GCC M5 variant G20R (Methylorubrum extorquens propionyl-CoA carboxylase variant G20R, L100S, Y143H, D407I, I450V, W502R; β-subunit SEQ … (protein, overexpressed in E. coli BL21-birA with M. extorquens biotin ligase) MKDILEKLEERRAQARLGGREKRLEAQHKRGKLTARERIELLLDHGSFEEFDMFVQHRSTDFGMEKQKIPGDGVVTGWGTVNGRTVFLFSKDFTVFGGSSSEAHAAKIVKVQDMALKMRAPIIGIFDAGGARIQEGVAALGGHGEVFRRNVAASGVIPQISVIMGPCAGGDVYSPAMTDFIFMVRDTSYMFVTGPDVVKTVTNEVVTAEELGGAKVHTSKSSIADGSFENDVEAILQIRRLLDFLPANNIEGVPEIESFDDVNRLDKSLDTLIPDNPNKPYDMGELIRRVVDEGDFFEIQAAYARNIITGFGRVEGRTVGFVANQPLVLAGVLDSDASRKAARFVRFCNAFSIPIVTFVDVPGFLPGTAQEYGGLIKHGAKLLFAYSQATVPLVTIITRKAFGGAYIVMASKHVGADLNYAWPTAQIAVMGAKGAVEIIFRAEIGDADKVAERTKEYEDRFLSPFVAAERGYIDEVIMPHSTRKRIARALGMLRTKEMEQPRKKHDNIPL",Km,[3],380 ± 100 µM
same,Vmax,[3],2.25 µmol/min/mg
same,kcat,[3],4.9 ± 0.4 s⁻¹
same,kcat/Km,[3],13000 M⁻¹ s⁻¹
same,Km,[4],270 ± 20 µM
same,Vmax,[4],4.52 µmol/min/mg
same,kcat,[4],9.8 ± 0.2 s⁻¹
same,kcat/Km,[4],36400 M⁻¹ s⁻¹
"Glycolyl-CoA Carboxylase GCC M5 variant S100N (= L100N; Methylorubrum extorquens propionyl-CoA carboxylase variant L100N, Y143H, D407I, I450V, W502R; β-subunit … (protein, overexpressed in E. coli BL21-birA with M. extorquens biotin ligase) MKDILEKLEERRAQARLGGGEKRLEAQHKRGKLTARERIELLLDHGSFEEFDMFVQHRSTDFGMEKQKIPGDGVVTGWGTVNGRTVFLFSKDFTVFGGSNSEAHAAKIVKVQDMALKMRAPIIGIFDAGGARIQEGVAALGGHGEVFRRNVAASGVIPQISVIMGPCAGGDVYSPAMTDFIFMVRDTSYMFVTGPDVVKTVTNEVVTAEELGGAKVHTSKSSIADGSFENDVEAILQIRRLLDFLPANNIEGVPEIESFDDVNRLDKSLDTLIPDNPNKPYDMGELIRRVVDEGDFFEIQAAYARNIITGFGRVEGRTVGFVANQPLVLAGVLDSDASRKAARFVRFCNAFSIPIVTFVDVPGFLPGTAQEYGGLIKHGAKLLFAYSQATVPLVTIITRKAFGGAYIVMASKHVGADLNYAWPTAQIAVMGAKGAVEIIFRAEIGDADKVAERTKEYEDRFLSPFVAAERGYIDEVIMPHSTRKRIARALGMLRTKEMEQPRKKHDNIPL",Km,[5],630 ± 100 µM
same,Vmax,[5],0.174 µmol/min/mg
same,kcat,[5],0.38 ± 0.03 s⁻¹
same,kcat/Km,[5],596 M⁻¹ s⁻¹
same,Km,[6],320 ± 50 µM
same,Vmax,[6],0.79 µmol/min/mg
same,kcat,[6],1.7 ± 0.1 s⁻¹
same,kcat/Km,[6],5360 M⁻¹ s⁻¹
PCC WT (M. extorquens) α-subunit (protein) MFDKILIANRGEIACRIIKTAQKMGIKTVAVYSDADRDAVHVAMADEAVHIGPAPAAQSYLLIEKIIDACKQTGAQAVHPGYGFLSERESFPKALAEAGIVFIGPNPGAIAAMGDKIESKKAAAAAEVSTVPGFLGVIESPEHAVTIADEIGYPVMIKASAGGGGKGMRIAESADEVAEGFARAKSEASSSFGDDRVFVEKFITDPRHIEIQVIGDKHGNVIYLGERECSIQRRNQKVIEEAPSPLLDEETRRKMGEQAVALAKAVNYDSAGTVEFVAGQDKSFYFLEMNTRLQVEHPVTEMITGLDLVELMIRVAAGEKLPLSQDQVKLDGWAVESRVYAEDPTRNFLPSIGRLTTYQPPEEGPLGGAIVRNDTGVEEGGEIAIHYDPMIAKLVTWAPTRLEAIEAQATALDAFAIEGIRHNIPFLATLMAHPRWRDGRLSTGFIKEEFPEGFIAPEPEGPVAHRLAAVAAAIDHKLNIRKRGISGQMRDPSLLTFQRERVVVLSGQRFNVTVDPDGDDLLVTFDDGTTAPVRSAWRPGAPVWSGTVGDQSVAIQVRPLLNGVFLQHAGAAAEARVFTRREAELADLMPVKENAGSGKQLLCPMPGLVKQIMVSEGQEVKNGEPLAIVEAMKMENVLRAERDGTISKIAAKEGDSLAVDAVILEFA,Specific activity (nmol min^-1 mg^-1) (nmol min^-1 mg^-1),[7],2600
same,"Vmax [nmol min^-1 mg^-1], glycolyl-CoA (nmol min^-1 mg^-1)",[7],4520
same,"kcat [s^-1], glycolyl-CoA",[7],9.8 s⁻¹
